{"source": "paper PMC9860310", "about": "(Proceedings of the National Academy of Sciences of the …, 2022)", "binders": {"B1": {"name": "GroES (natural protein, Escherichia coli, UniProt P0A6F9 1-97, looked up)", "chain": "MNIRPLHDRVIVKRKEVETKSAGGIVLTGSAAAKSTRGEVLAVGNGRILENGEVKPLDVKVGDIVIFNDGYGVKSEKIDNEEVLIMSESDILAIVEA"}}, "molecular_target": "GroEL (Escherichia coli, UniProt P0A6F5 1-548)", "sequence (P0A6F5 whole entry)": "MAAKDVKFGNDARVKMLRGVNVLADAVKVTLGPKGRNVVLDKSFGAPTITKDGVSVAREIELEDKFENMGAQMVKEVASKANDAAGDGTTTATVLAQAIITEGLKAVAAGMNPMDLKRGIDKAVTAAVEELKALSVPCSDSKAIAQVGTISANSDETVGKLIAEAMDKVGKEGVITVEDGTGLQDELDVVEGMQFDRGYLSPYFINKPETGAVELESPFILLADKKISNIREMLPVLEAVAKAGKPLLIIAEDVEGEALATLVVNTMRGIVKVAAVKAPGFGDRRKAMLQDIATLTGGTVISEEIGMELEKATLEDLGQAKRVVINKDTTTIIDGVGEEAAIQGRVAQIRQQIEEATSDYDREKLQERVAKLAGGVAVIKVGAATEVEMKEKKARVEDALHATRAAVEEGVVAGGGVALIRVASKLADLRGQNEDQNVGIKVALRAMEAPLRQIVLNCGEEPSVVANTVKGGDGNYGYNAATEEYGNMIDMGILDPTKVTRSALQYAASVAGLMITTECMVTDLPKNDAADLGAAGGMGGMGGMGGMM", "test": "reconstitution of the complex"}
{"binder": "B1", "values": [{"measurement": "binding result", "result": "binds"}]}
